Results as given in patent US20230399394A1 (SUNSHINE GUOJIAN PHARMACEUTICAL SHANGHAI, published 2023).
Changes are numbered by the printed parent chain.

Assays:
[1] = biological target: T1, IL-33 mutant protein E44A (human, UniProt O95760 112-270); test: ELISA as Example 9; row E44A
T1 construct: Prokaryotic expression
T1 chain: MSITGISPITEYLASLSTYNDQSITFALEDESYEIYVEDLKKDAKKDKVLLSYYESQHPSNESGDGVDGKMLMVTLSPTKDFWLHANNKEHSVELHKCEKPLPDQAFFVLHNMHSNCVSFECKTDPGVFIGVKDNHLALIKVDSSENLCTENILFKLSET
Protocol: (§1) SA protein was diluted to 2 μg/mL to coat ELISA plate at 100 μL/well overnight at 4° C. The plate was washed with PBST (PBS containing 0.05% Tween20) for 3 times, and blocked with 2% BSA prepared in PBS at 200 μL/well, at room temperature for 2 h. After the plate was washed twice with PBST, IL-33-his-biotin protein was diluted to 1 μg/mL with 1% BSA prepared in PBST, and was added to ELISA plate at 100 μL/well. The plate was incubated at room temperature for 1 h, and each monoclonal antibody was diluted with 1% BSA prepared in PBST in a 3-fold gradient. The highest concentration of antibody was 10 μg/mL, and the antibody was diluted for 12 gradients. Each diluted monoclonal antibody was added to ELISA wells with 100 μL/well, and the plate was incubated at room temperature for 1 h. Each sample was added to duplicate wells in parallel. The plate was washed with PBST for 3 times, and HRP-anti human IgG Fc secondary antibody prepared with PBST was diluted at an appropriate ratio, and was added to ELISA wells at 100 μL/well. […] Each reaction solution was shaken uniformly and OD450 nm was read on a microplate reader. The data was analyzed and EC₅₀ was calculated.
(§2) Subsequently, according to the experimental method of Example 9, the affinity of the above mutant proteins to 874F7-Hu1 was determined, and IL-33 proteins (WT-1, WT-2, WT-3, and WT-4) without any mutation were set as controls.

[2] = biological target: T2, IL-33 mutant protein S60A (human, UniProt O95760 112-270); test: ELISA as Example 9; row S60A
T2 construct: Prokaryotic expression; also called 560A
T2 chain: T1 chain with A44E, S60A
Protocol: as §1, §2

[3] = biological target: T3, IL-33 mutant protein V67A (human, UniProt O95760 112-270); test: ELISA as Example 9; row V67A
T3 construct: Prokaryotic expression
T3 chain: T1 chain with A44E, V67A
Protocol: as §1, §2

[4] = biological target: T4, IL-33 protein without any mutation (WT) (human, UniProt O95760 112-270); test: ELISA as Example 9; row WT-1
T4 construct: Control of the alanine scan (four runs WT-1 to WT-4); also called WT-1; WT-2
T4 sequence: T1 chain with A44E
Protocol: as §1, §2

[5] = biological target: T4, IL-33 protein without any mutation (WT); test: ELISA as Example 9; row WT-3, the reference itself
Protocol: as §1, §2

[6] = biological target: T5, Human IL-33-his (human, UniProt O95760 112-270, biotinylated with EZ-Link NHS-Biotin where used as IL-33-his-biotin); test: indirect ELISA, biotinylated IL-33-his on streptavidin plate
T5 construct: Used plain (SPR, cell assays) and biotinylated (ELISA); also called IL-33-his-biotin
T5 sequence: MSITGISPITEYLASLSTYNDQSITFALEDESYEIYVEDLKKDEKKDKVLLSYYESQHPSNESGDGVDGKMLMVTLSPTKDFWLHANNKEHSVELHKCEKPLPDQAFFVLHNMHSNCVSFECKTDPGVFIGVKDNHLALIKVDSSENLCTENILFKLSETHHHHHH
Protocol: The binding ability of murine antibody to human IL-33 protein was determined by indirect enzyme-linked immunosorbent assay (ELISA). The specific methods were as follows: The plate was pre-coated with biotin-avidin (SA) which was diluted in coating solution (50 mM carbonate coating buffer, pH 9.6) to 2 μg/ml at 4° C. overnight, then the plate was blocked with 5% skim milk powder at 37° C. for 2 hours and stored at −80° C. for later use. Biotinylated recombinant human IL-33-his protein was diluted to 0.5 μg/ml in coating solution (50 mM carbonate coating buffer, pH 9.6) and was added at 100 μl/well to the pre-coated SA plate, 37° C., 0.5 h. After washing the plate with PBST for 3 times, the antibodies to be tested were diluted by gradient with 1% BSA buffer and added into the blocked plate at 100 μl/well, and incubated at 37° C. for 1 hour. The plate was washed with PBST for 3 times, and the HRP-labeled goat anti-mouse IgG was added and placed at 37° C. for 30 min. After washing the plate with PBST for 3 times, the plate was patted on the absorbent paper to remove residual droplets as far as possible. […] OD values were read at 450 nm on the microplate reader to analyze the binding ability of the antibodies to be tested to the target antigen human IL-33-his.

B1: 874F7-Hu1 (antibody, human IgG4 S228P, kappa)
heavy: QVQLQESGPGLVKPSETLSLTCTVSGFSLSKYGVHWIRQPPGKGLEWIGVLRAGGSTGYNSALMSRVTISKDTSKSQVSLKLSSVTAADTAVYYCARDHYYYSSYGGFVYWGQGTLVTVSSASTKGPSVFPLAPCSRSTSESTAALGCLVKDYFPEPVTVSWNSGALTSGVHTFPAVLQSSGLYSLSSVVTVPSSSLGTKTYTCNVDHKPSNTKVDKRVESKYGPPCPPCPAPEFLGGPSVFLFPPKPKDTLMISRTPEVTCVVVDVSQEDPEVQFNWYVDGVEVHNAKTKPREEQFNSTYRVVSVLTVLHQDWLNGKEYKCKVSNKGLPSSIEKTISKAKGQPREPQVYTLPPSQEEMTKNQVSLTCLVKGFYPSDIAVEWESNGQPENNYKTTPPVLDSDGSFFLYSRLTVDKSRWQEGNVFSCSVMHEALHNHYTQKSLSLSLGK
light: DIQMTQSPSSVSASVGDRVTITCLASQTIGAWLAWYQQKPGKSPKLLIYAATRLADGVPSRFSGSGSGTDFTLTISSLQPEDFATYYCQQLDSSPYTFGQGTKVEIKRTVAAPSVFIFPPSDEQLKSGTASVVCLLNNFYPREAKVQWKVDNALQSGNSQESVTEQDSKDSTYSLSSTLTLSKADYEKHKVYACEVTHQGLSSPVTKSFNRGEC
notes: also called 874F7-Hul; humanized antibody 874F7-Hu1
EC50 [1]: 0.13 nM | EC50 [2]: 5.31 nM | EC50 [3]: 0.11 nM | EC50 [4]: 0.23 nM | Affinity decline ratio [5]: 1 fold

B2: 874F7 (antibody, V domains shown)
VH: QVQLKESGPGLVAPSHSLSITCNVSGFSLSKYGVHWIRQIPGRGLDWLGVLRAGGSTGYNSALMSRLSISKDSSKSQVFLKMNDLRTDDTAVYFCVRDHYYYSSYGGFVYWGQGTLVTVSA
VL: DIQMTQSPASQSASLGESVTITCLASQTIGAWLAWYRQQPGKSPQLLIYAATRLADGVPSRFSGSGSGTEFSFKINNLQAEDFVSYYCQQLDSSPYTFGGGTRLEM
notes: Murine hybridoma antibody purified on Protein G; also called murine antibody 874F7
EC50 [6]: 0.11 nM
